Assay [1] has as its target human BTN3A as expressed on human cells (PBMC, Daudi, tumour cell lines, HUVEC, HEK293T WT) (human). Put plainly: flow cytometry on Daudi lymphoma cells. For orientation: A flow cytometer gives signals particle by particle.
For assay [2] the target is unchanged. In words: cell-based or functional assay.
The target of assay [3] is cynomolgus BTN3A as expressed on cynomolgus PBMCs (cynomolgus monkey (Macaca fascicularis)). In words: flow cytometry on cynomolgus PBMCs.
Assay [4] deals with human BTN3A as expressed on human cells (PBMC, Daudi, tumour cell lines, HUVEC, HEK293T WT) (human). Put plainly: flow cytometry on human PBMCs.

B1: Chimeric 7.2 (VH0/Vκ0) (antibody, V domains shown)
VH: QVQLQQSGAELVKPGASVKLSCKASGYIFTRYYMYWVKQRPGQGLEWIGEINPNNGGTKFNEKFKNKATLTVDKFSSTAYMQLRSLTSEDSAVYYCSREDDYDGTPFAMDYWGQGTSVTVSS
VL: DIQMNQSPSSLSASLGDTITITCHASQNINVWLSWYQQKPGNIPKLLIYKASNLHTGVPSRFTGSGSGTGFTLTISSLQPEDIATYYCQQGQTYPYTFGGGTKLEIK
By EC50 is commonly meant the concentration that produces a half-maximal response. In assay [1], B1 yielded an EC50 of 1.44 µg/mL. For the same molecule, in assay [2], the Functional assay (AML resistant) (γδT cell-based, EC50, µg/mL) stood at 0.42 µg/mL; the Functional assay (AML sensitive) (γδT cell-based, EC50, µg/mL) is 0.12 µg/mL; the Functional assay (Daudi) (γδT cell-based, EC50, µg/mL) was determined as 0.02 µg/mL. Further, in assay [3], the half-maximal effective concentration (EC50) was 7.75 µg/mL. Further, in assay [4], the EC50 stood at 3.6 µg/mL.
